In paper PMC4007151 (Nature communications, 2013):
No end group written: not given here.

Molecular target: T1, PHF1 Tudor-PHD1 (human, UniProt O43189 14-140)
T1 sequence: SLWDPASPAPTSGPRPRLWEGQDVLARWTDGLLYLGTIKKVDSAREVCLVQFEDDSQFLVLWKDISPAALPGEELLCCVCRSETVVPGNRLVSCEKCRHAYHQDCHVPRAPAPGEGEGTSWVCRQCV
Experiment: NMR titration

binding result: binds
Binder: ATGGVK(Me3)KPHR [H3K36me3 peptide]
